From publication PMC5093408 come the findings set out here.

The target of assay [1] is HUSpm Asn92Lys mutant (Spiroplasma melliferum KC3). Put plainly: SEC; size-exclusion chromatography of the purified point mutants; conditions not given.
In assay [2] the target is HUSpm Lys35Thr mutant (Spiroplasma melliferum KC3). The assay is described as above.
In assay [3] the target is HUSpm Phe14Ala mutant (Spiroplasma melliferum KC3). The assay is described as above.
The target of assay [4] is HUSpm Phe29Ala mutant (Spiroplasma melliferum KC3). Described as above.
Assay [5] addresses HUSpm Val17Thr mutant (Spiroplasma melliferum KC3). The assay is described as above.
For assay [6], the target named is histone-like HU protein from Spiroplasma melliferum KC3 (Spiroplasma melliferum KC3). The assay is described as follows: crystal structure; hanging-drop vapour diffusion at 4 °C; protein 14 mg/ml in 20 mM Tris HCl pH 8.0, 200 mM NaCl, 5% glycerol; reservoir 0.1 M Tris HCl pH 8.0, 35% v/v PEG 400, 5% glycerol; one monomer per asymmetric unit, dimer by a crystallographic twofold axis; 1.4 Å.

For the substance HUSpm Asn92Lys mutant (natural protein), in assay [1], the stoichiometry N (in general, the number of molecules, sites or subunits per partner or assembly) was 2.
As for HUSpm Lys35Thr mutant (natural protein), the stoichiometry N in assay [2] was found to be 2.
Substance HUSpm Phe14Ala mutant (natural protein) displayed a stoichiometry N in assay [3] of 2.
In the case of HUSpm Phe29Ala mutant (natural protein), the stoichiometry N in assay [4] was determined as 2.
For HUSpm Val17Thr mutant (natural protein), the stoichiometry N in assay [5] was 2.
For “histone-like HU protein from Spiroplasma melliferum KC3 (natural protein)”, the stoichiometry N in assay [6] was determined as 2.
